The values below come from the supplement of paper PMC12855868.

B1: library; numbered along this chain (parent)
chain: MAAAGGARLLRAASAVLGGPAGRWLHHAGSRAGSSGLLRNRGPGGSAEASRSLSVSARARSSSEDKITVHFINRDGETLTTKGKVGDSLLDVVVENNLDIDGFGACEGTLACSTCHLIFEDHIYEKLDAITDEENDMLDLAYGLTDRSRLGCQICLTKSMDNMTVRVPETVADARQSIDVGKTS

The variants in this data set derive from B1. Nature of the data set: scaled log2 fold change in cell abundance, elesclomol vs control (0 = silent mean, 1 = nonsense mean) (scaled log2 ratio); higher = higher viability under elesclomol (loss of FDX1 cuproptosis function). The note with it: glucose 10 mM.
The mark [1] stands for this setting: with ABC1 FDX1 KO, elesclomol 5 nM, 14 days.
Setting [2] is: with HEK293T FDX1 KO, elesclomol 40 nM, 11 days.
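Note: variant abundance is its share of total variant reads in each endpoint sample, from next-generation sequencing of the integrated ORF PCR-amplified out of genomic DNA.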

In the case of MAAAGGARLLRAASAVLGGPAGRWLHHAGSRAGSSGLLRNRGPGGSAEASRSLSVSARARSSSEDKITVHFINRDGETLTTKGKVGDSLLDVVVENNLDIDGFGACEGTLACSTCHLIFEDHIYEKLDAITDEENDMLDLAYGLTDRSRLGCAICLTKSMDNMTVRVPETVADARQSIDVGKTS, the “scaled log2 fold change” value reads like this: under setting [1], 0.0247; under setting [2], -0.209.
The matching figures for MAAAGGARLLRAASAVLGGPAGRWLHHAGSRAGSSGLLRNRGPGGSAEASRSLSVSARARSSSEDKITVHFINRDGETLTTKGKVGDSLLDVVVENNLDIDGFGACEGTLACSTCHLIFEDHIYEKLDAITDEENDMLDLAYGLTDRSRLGTQICLTKSMDNMTVRVPETVADARQSIDVGKTS: 1.06 and 1.22.
Regarding MAAAGGARLLRAASAVLGGPAGRWLHHAGSRAGSSGLLRNRGPGGSAEASRSLSVSARARSSSEDKITVHFINRDGETLTTKGKVGDSLLDVVVENNLDIDGFGACEGTLACSTCHLIFEDHIYEKLDAITDEENDMLDLAYGLTDRSRLGYQICLTKSMDNMTVRVPETVADARQSIDVGKTS, the “scaled log2 fold change” value is, setting by setting: under setting [1], 1.15; under setting [2], 1.64.
Taken in the same sequence, the figures for MAAAGGARLLRAASAVLGGPAGRWLHHAGSRAGSSGLLRNRGPGGSAEASRSLSVSARARSSSEDKITVHFINRDGETLTTKGKVGDSLLDVVVENNLDIDGFGACEGTLACSTCHLIFEDHIYEKLDAITDEENDMLDLAYGLTDRSRLGVQICLTKSMDNMTVRVPETVADARQSIDVGKTS were 1.23 and 1.12.
Consider MAAAGGARLLRAASAVLGGPAGRWLHHAGSRAGSSGLLRNRGPGGSAEASRSLSVSARARSSSEDKITVHFINRDGETLTTKGKVGDSLLDVVVENNLDIDGFGACEGTLACSTCHLIFEDHIYEKLDAITDEENDMLDLAYGLTDRSRLGRQICLTKSMDNMTVRVPETVADARQSIDVGKTS, for which the “scaled log2 fold change” value under setting [1] is 1.08 and the “scaled log2 fold change” value under setting [2] is 1.5.
Taken in the same sequence, the figures for MAAAGGARLLRAASAVLGGPAGRWLHHAGSRAGSSGLLRNRGPGGSAEASRSLSVSARARSSSEDKITVHFINRDGETLTTKGKVGDSLLDVVVENNLDIDGFGACEGTLACSTCHLIFEDHIYEKLDAITDEENDMLDLAYGLTDRSRLGQQICLTKSMDNMTVRVPETVADARQSIDVGKTS were 1.01 and 1.18.
Taken in the same sequence, the figures for MAAAGGARLLRAASAVLGGPAGRWLHHAGSRAGSSGLLRNRGPGGSAEASRSLSVSARARSSSEDKITVHFINRDGETLTTKGKVGDSLLDVVVENNLDIDGFGACEGTLACSTCHLIFEDHIYEKLDAITDEENDMLDLAYGLTDRSRLGSQICLTKSMDNMTVRVPETVADARQSIDVGKTS were 1.17 and 1.18.
The matching figures for MAAAGGARLLRAASAVLGGPAGRWLHHAGSRAGSSGLLRNRGPGGSAEASRSLSVSARARSSSEDKITVHFINRDGETLTTKGKVGDSLLDVVVENNLDIDGFGACEGTLACSTCHLIFEDHIYEKLDAITDEENDMLDLAYGLTDRSRLGWQICLTKSMDNMTVRVPETVADARQSIDVGKTS: 1.13 and 1.28.
